Results published in the RNAGym collection of RNA variant scans (doi:10.7554/elife.80360).

B1: HDV Ribozyme (parent)
chain: GGCCGGCAUGGUCCCAGCCUCCUCGCUGGCGCCGGCUGGGCAACAUUCCGAGGGGACCGUCCCCUCGGUAAUGGCGAAUGGGACCCA

Variants of: B1
Test: self-cleavage, relative activity (ratio to wild type); higher = more cleavage; co-transcriptional

Point of comparison: GGCUGGCAUGGUCCCAGCCUCCUCGCUGGCACCGGCUGGGCAACAUUCCGAGGGGACCGUCCCCUCGGUAAUGGCGAAUGGGACCCA [C4U G31A], self-cleavage 0.163. Against it:
- GGCUGGCAUGGUCCCAGCCUCCUCGCUGGCGCCCGCUGGGCAACAUUCCGAGGGGACCGUCCCCUCGGUAAUGGCGAAUGGGACCCA [C4U G34C] — lower, 0.151
- GGCUGGCAUGGUCCCAGCCUCCUCGCUGGCGCCUGCUGGGCAACAUUCCGAGGGGACCGUCCCCUCGGUAAUGGCGAAUGGGACCCA [C4U G34U] — higher, 0.424
- GGCUGGCAUGGUCCCAGCCUCCUCGCUGGCGCCGUCUGGGCAACAUUCCGAGGGGACCGUCCCCUCGGUAAUGGCGAAUGGGACCCA [C4U G35U] — lower, 0.162
- GGCUGGCAUGGUCCCAGCCUCCUCGCUGGCGCCGGCUGGGCAACAUUCCGAGGCGACCGUCCCCUCGGUAAUGGCGAAUGGGACCCA [C4U G54C] — higher, 0.795
- GGCUGGCAUGGUCCCAACCUCCUCGCUGGCGCCGGCUGGGCAACAUUCCGAGGGGACCGUCCCCUCGGUAAUGGCGAAUGGGACCCA [C4U G17A] — higher, 0.332
- GGCUGGCAUGGUCCCAUCCUCCUCGCUGGCGCCGGCUGGGCAACAUUCCGAGGGGACCGUCCCCUCGGUAAUGGCGAAUGGGACCCA [C4U G17U] — lower, 0.136
- GGCUGGCAUGGUCCCAGCCUCCUCGCUUGCGCCGGCUGGGCAACAUUCCGAGGGGACCGUCCCCUCGGUAAUGGCGAAUGGGACCCA [C4U G28U] — lower, 0.0277
- GGCUGGCAUGGUCCCAGCCUCCUCGCUAGCGCCGGCUGGGCAACAUUCCGAGGGGACCGUCCCCUCGGUAAUGGCGAAUGGGACCCA [C4U G28A] — lower, 0.0845
- GGCUGGCAUGGUCCCAGCCUCCUCGCUGGCUCCGGCUGGGCAACAUUCCGAGGGGACCGUCCCCUCGGUAAUGGCGAAUGGGACCCA [C4U G31U] — lower, 0.0346
- GGCUGGCAUGGUCCCAGCCUCCUCGCUGGCCCCGGCUGGGCAACAUUCCGAGGGGACCGUCCCCUCGGUAAUGGCGAAUGGGACCCA [C4U G31C] — lower, 0.0339
- GGCUGGCAUGGUCCCAGCCUCCUCGCUGGCGCCGGCUGGGCAACAUUCCGAAGGGACCGUCCCCUCGGUAAUGGCGAAUGGGACCCA [C4U G52A] — higher, 0.443
- GGCUGGCAUGGUCCCAGCCUCCUCGCUGGCGCCGGCUGGGCAACAUUCCGAUGGGACCGUCCCCUCGGUAAUGGCGAAUGGGACCCA [C4U G52U] — higher, 0.831
- GGCUGGCAUGGUCCCAGCCUCCUCGCUGGCGCCGGCUGGGCAACAUUCCGAGGGGACCGUCCCCUCCGUAAUGGCGAAUGGGACCCA [C4U G67C] — higher, 0.739
- GGCUGGCAUGGUCCCAGCCUCCUCGCUGGCGCCGGCUGGGCAACAUUCCGAGGGGACCGUCCCCUCUGUAAUGGCGAAUGGGACCCA [C4U G67U] — higher, 0.855
- GGCUGGCAUGGUCCCAGCCUCCUCGCUGGCGCCGGCUGGGCAACAUUCCGAGGGGACCGUCCCCUCAGUAAUGGCGAAUGGGACCCA [C4U G67A] — higher, 0.554
- GGCUGGCAUGGUCCCAGCCUCCUCACUGGCGCCGGCUGGGCAACAUUCCGAGGGGACCGUCCCCUCGGUAAUGGCGAAUGGGACCCA [C4U G25A] — lower, 0.111
- GGCUGGCAUGGUCCCAGCCUCCUCGCUGUCGCCGGCUGGGCAACAUUCCGAGGGGACCGUCCCCUCGGUAAUGGCGAAUGGGACCCA [C4U G29U] — lower, 0.0302
- GGCUGGCAUGGUCCCAGCCUCCUCGCUGGCGCCGGCUGGGCAACAUUCCCAGGGGACCGUCCCCUCGGUAAUGGCGAAUGGGACCCA [C4U G50C] — higher, 0.917
- GGCUGGCAUGGUCCCAGCCUCCUCGCUGGCGCCGGCUGGGCAACAUUCCAAGGGGACCGUCCCCUCGGUAAUGGCGAAUGGGACCCA [C4U G50A] — higher, 0.686
- GGCUGGCAUGGUCCCAGCCUCCUCGCUGGCGCCGGCUGGGCAACAUUCCGAGGGGACCGUCCCCUCGGUAAUGACGAAUGGGACCCA [C4U G74A] — higher, 0.197
- GGCUGGCAUGGUCCCAGCCUCCUCGCUGGCGCCGGCUGGGCAACAUUCCGAGCGGACCGUCCCCUCGGUAAUGGCGAAUGGGACCCA [C4U G53C] — higher, 0.782
- GGCUGGCAUGGUCCCAGCCUCCUCGCUGGCGCCGGCUGGGCAACAUUCCGAGAGGACCGUCCCCUCGGUAAUGGCGAAUGGGACCCA [C4U G53A] — higher, 0.665
- GGCUGGCAUGCUCCCAGCCUCCUCGCUGGCGCCGGCUGGGCAACAUUCCGAGGGGACCGUCCCCUCGGUAAUGGCGAAUGGGACCCA [C4U G11C] — lower, 0
- GGCUGGCAUGGUCCCAGCCUCCUCGCUGGCGCCGGCUGGGCAACAUUCCGAGGGGACCGUCCCCUCGGUAAUUGCGAAUGGGACCCA [C4U G73U] — lower, 0.138
- GGCUGGCAUGGUCCCAGCCUCCUCGCUGGCGCCGGCUGGGCAACAUUCCGAGGGGACCGUCCCCUCGGUAAUCGCGAAUGGGACCCA [C4U G73C] — higher, 0.242
- GGCUGGCAUGGUCCCAGCCUCCUCGCUGGCGCCGGCUGGGCAACAUUCCGAGGGAACCGUCCCCUCGGUAAUGGCGAAUGGGACCCA [C4U G55A] — higher, 0.772
- GGCUGGCAUGGUCCCAGCCUCCUCGCUGGCGCCGGCUGGGCAACAUUCCGAGGGUACCGUCCCCUCGGUAAUGGCGAAUGGGACCCA [C4U G55U] — higher, 0.639
- GGCUGGCAUGGUCCCAGCCUCCUCGCUGGCGCCGGCUGGGCAACAUUCCGAGGGCACCGUCCCCUCGGUAAUGGCGAAUGGGACCCA [C4U G55C] — higher, 0.656
- GGCUGGCAUGGUCCCAGCCUCCUCGCUGGCGCCGGCUGGCCAACAUUCCGAGGGGACCGUCCCCUCGGUAAUGGCGAAUGGGACCCA [C4U G40C] — lower, 0.128
- GGCUGGCAUGGUCCCAGCCUCCUCGCUGGCGCCGGCUGGACAACAUUCCGAGGGGACCGUCCCCUCGGUAAUGGCGAAUGGGACCCA [C4U G40A] — higher, 0.604
- GGCUGGCAUGGUCCCAGCCUCCUCGCUGGCGCCGGCUGGGCAACAUUCCGAGGGGACCGUCCCCUCGUUAAUGGCGAAUGGGACCCA [C4U G68U] — higher, 0.657
